Laboratory results from patent US20060121570A1 (published 2006).

B1: fibrinogen (ligand)
chain 1: ADSGEGDFLAEGGGVRGPRVVERHQSACKDSDWPFCSDEDWNYKCPSGCRMKGLIDEVNQDFTNRINKLKNSLFEYQKNNKDSHSLTTNIMEILRGDFSSANNRDNTYNRVSEDLRSRIEVLKRKVIEKVQHIQLLQKNVRAQLVDMKRLEVDIDIKIRSCRGSCSRALAREVDLKDYEDQQKQLEQVIAKDLLPSRDRQHLPLIKMKPVPDLVPGNFKSQLQKVPPEWKALTDMPQMRMELERPGGNEITRGGSTSYGTGSETESPRNPSSAGSWNSGSSGPGSTGNRNPGSSGTGGTATWKPGSSGPGSTGSWNSGSSGTGSTGNQNPGSPRPGSTGTWNPGSSERGSAGHWTSESSVSGSTGQWHSESGSFRPDSPGSGNARPNNPDWGTFEEVSGNVSPGTRREYHTEKLVTSKGDKELRTGKEKVTSGSTTTTRRSCSKTVTKTVIGPDGHKEVTKEVVTSEDGSDCPEAMDLGTLSGIGTLDGFRHRHPDEAAFFDTASTGKTFPGFFSPMLGEFVSETESRGSESGIFTNTKESSSHHPGIAEFPSRGKSSSYSKQFTSSTSYNRGDSTFESKSYKMADEAGSEADHEGTHSTKRGHAKSRPV
chain 2: QGVNDNEEGFFSARGHRPLDKKREEAPSLRPAPPPISGGGYRARPAKAAATQKKVERKAPDAGGCLHADPDLGVLCPTGCQLQEALLQQERPIRNSVDELNNNVEAVSQTSSSSFQYMYLLKDLWQKRQKQVKDNENVVNEYSSELEKHQLYIDETVNSNIPTNLRVLRSILENLRSKIQKLESDVSAQMEYCRTPCTVSCNIPVVSGKECEEIIRKGGETSEMYLIQPDSSVKPYRVYCDMNTENGGWTVIQNRQDGSVDFGRKWDPYKQGFGNVATNTDGKNYCGLPGEYWLGNDKISQLTRMGPTELLIEMEDWKGDKVKAHYGGFTVQNEANKYQISVNKYRGTAGNALMDGASQLMGENRTMTIHNGMFFSTYDRDNDGWLTSDPRKQCSKEDGGGWWYNRCHAANPNGRYYWGGQYTWDMAKHGTDDGVVWMNWKGSWYSMRKMSMKIRPFFPQQ
chain 3: YVATRDNCCILDERFGSYCPTTCGIADFLSTYQTKVDKDLQSLEDILHQVENKTSEVKQLIKAIQLTYNPDESSKPNMIDAATLKSRKMLEEIMKYEASILTHDSSIRYLQEIYNSNNQKIVNLKEKVAQLEAQCQEPCKDTVQIHDITGKDCQDIANKGAKQSGLYFIKPLKANQQFLVYCEIDGSGNGWTVFQKRLDGSVDFKKNWIQYKEGFGHLSPTGTTEFWLGNEKIHLISTQSAIPYALRVELEDWNGRTSTADYAMFKVGPEADKYRLTYAYFAGGDAGDAFDGFDFGDDPSDKFFTSHNGMQFSTWDNDNDKFEGNCAEQDGSGWWMNKCHAGHLNGVYYQGGTYSKASTPNGYDNGIIWATWKTRWYSMKKTTMKIIPFNRLTIGEGQQHHLGGAKQAGDV
B2: circular peptide CSFGRTDQRNC derived from the HCDR3 of MTF-32 (peptide)
peptide: CSFGRTDQRNC
HELM: PEPTIDE1{[ac].C.S.F.G.R.T.D.Q.R.N.C.[am]}$PEPTIDE1,PEPTIDE1,2:R3-12:R3$$$V2.0
SMILES: CC(=O)N[C@H]1CSSC[C@@H](C(N)=O)NC(=O)[C@H](CC(N)=O)NC(=O)[C@H](CCCNC(=N)N)NC(=O)[C@H](CCC(N)=O)NC(=O)[C@H](CC(=O)O)NC(=O)[C@H]([C@@H](C)O)NC(=O)[C@H](CCCNC(=N)N)NC(=O)CNC(=O)[C@H](Cc2ccccc2)NC(=O)[C@H](CO)NC1=O
notes: also called peptide 32 (circular)
B3: circular peptide CSFGRNDSRNC derived from the HCDR3 of MTF-40 (peptide)
peptide: CSFGRNDSRNC
HELM: PEPTIDE1{[ac].C.S.F.G.R.N.D.S.R.N.C.[am]}$PEPTIDE1,PEPTIDE1,2:R3-12:R3$$$V2.0
SMILES: CC(=O)N[C@H]1CSSC[C@@H](C(N)=O)NC(=O)[C@H](CC(N)=O)NC(=O)[C@H](CCCNC(=N)N)NC(=O)[C@H](CO)NC(=O)[C@H](CC(=O)O)NC(=O)[C@H](CC(N)=O)NC(=O)[C@H](CCCNC(=N)N)NC(=O)CNC(=O)[C@H](Cc2ccccc2)NC(=O)[C@H](CO)NC1=O
notes: also called peptide 40 (circular)

Experiments:
[1] = molecular target: T1, platelet integrin αIIbβ3 (human platelet glycoprotein gpIIb/IIIa), purified (human, UniProt P08514 32-1039; P05106 27-788); experiment: SPR (BIAcore), αIIbβ3 immobilized
T1 construct: mature

[2] = molecular target: T1, platelet integrin αIIbβ3 (human …); experiment: inhibition of 125I-fibrinogen binding to purified αIIbβ3

| Binder | kon [1] [M⁻¹ s⁻¹] | IC50 [2] [nM] |
| --- | --- | --- |
| B1 | 600000 | – |
| Ac-GCSFGRTDQRNCY-NH2 (cysteine pairing not given here, also called peptide 32 (linear)) [linear peptide GCSFGRTDQRNCY derived from the HCDR3 of MTF-32] | – | 2000 |
| Ac-GCSFGRNDSRNCY-NH2 (cysteine pairing not given here, also called peptide 40 (linear)) [linear peptide GCSFGRNDSRNCY derived from the HCDR3 of MTF-40] | – | 500 |
| B2 | – | 2000 |
| B3 | – | 500 |
